Like-named read-outs stand apart in the source and are kept apart here.
B1: D16-FAM (ssRNA)
RNA: CGAAUUUUUUAAGUGC
B2: R16 (ssRNA)
RNA: GCACUUAAAAAAUUCG
B3: dMB-D16 (ssDNA)
DNA: CCAGGGCACTTAAAAAATTCGCCTGG
B4: dMB-R16 (ssDNA)
DNA: CCCCTCGAATTTTTTAAGTGCAGGGG

Assays:
[1] = molecular target: T1, Hfq (His-tagged; natural Hfq used in some experiments) (UniProt P0A6X3 1-102); test: fluorescence anisotropy
[2] = molecular target: T1, Hfq (His-tagged; natural Hfq used in …); test: EMSA
[3] = molecular target: T1, Hfq (His-tagged; natural Hfq used in …); test: EMSA; remark: listed apart in the source

T1 sequence (P0A6X3 whole entry): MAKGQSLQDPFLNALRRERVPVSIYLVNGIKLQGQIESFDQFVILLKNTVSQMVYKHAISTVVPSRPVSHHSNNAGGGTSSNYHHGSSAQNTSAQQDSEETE

| Binder | binding result [3] | other results |
| --- | --- | --- |
| B1 | – | Kd [1]: 23 ± 4 nM |
| B2 | – | binding result [2]: binds |
| B3 | no binding | – |
| B4 | no binding | – |

Source: article PMC2764445
